Measured values published in patent EP1688435A1 (Boehringer Ingelheim International GmbH, dated 2006).

Experiments:
Assay in all cases: immunoprecipitation with myc antibodies, SDS-PAGE and silver staining (Figure 3B)
[1] = target: human cohesin subunit Smc3 (human, UniProt Q9UQE7 1-1217)
[2] = target: T1, human cohesin subunit SA1 (cell-cycle state not stated) (human, UniProt Q8WVM7 1-1258)
T1 sequence (looked up): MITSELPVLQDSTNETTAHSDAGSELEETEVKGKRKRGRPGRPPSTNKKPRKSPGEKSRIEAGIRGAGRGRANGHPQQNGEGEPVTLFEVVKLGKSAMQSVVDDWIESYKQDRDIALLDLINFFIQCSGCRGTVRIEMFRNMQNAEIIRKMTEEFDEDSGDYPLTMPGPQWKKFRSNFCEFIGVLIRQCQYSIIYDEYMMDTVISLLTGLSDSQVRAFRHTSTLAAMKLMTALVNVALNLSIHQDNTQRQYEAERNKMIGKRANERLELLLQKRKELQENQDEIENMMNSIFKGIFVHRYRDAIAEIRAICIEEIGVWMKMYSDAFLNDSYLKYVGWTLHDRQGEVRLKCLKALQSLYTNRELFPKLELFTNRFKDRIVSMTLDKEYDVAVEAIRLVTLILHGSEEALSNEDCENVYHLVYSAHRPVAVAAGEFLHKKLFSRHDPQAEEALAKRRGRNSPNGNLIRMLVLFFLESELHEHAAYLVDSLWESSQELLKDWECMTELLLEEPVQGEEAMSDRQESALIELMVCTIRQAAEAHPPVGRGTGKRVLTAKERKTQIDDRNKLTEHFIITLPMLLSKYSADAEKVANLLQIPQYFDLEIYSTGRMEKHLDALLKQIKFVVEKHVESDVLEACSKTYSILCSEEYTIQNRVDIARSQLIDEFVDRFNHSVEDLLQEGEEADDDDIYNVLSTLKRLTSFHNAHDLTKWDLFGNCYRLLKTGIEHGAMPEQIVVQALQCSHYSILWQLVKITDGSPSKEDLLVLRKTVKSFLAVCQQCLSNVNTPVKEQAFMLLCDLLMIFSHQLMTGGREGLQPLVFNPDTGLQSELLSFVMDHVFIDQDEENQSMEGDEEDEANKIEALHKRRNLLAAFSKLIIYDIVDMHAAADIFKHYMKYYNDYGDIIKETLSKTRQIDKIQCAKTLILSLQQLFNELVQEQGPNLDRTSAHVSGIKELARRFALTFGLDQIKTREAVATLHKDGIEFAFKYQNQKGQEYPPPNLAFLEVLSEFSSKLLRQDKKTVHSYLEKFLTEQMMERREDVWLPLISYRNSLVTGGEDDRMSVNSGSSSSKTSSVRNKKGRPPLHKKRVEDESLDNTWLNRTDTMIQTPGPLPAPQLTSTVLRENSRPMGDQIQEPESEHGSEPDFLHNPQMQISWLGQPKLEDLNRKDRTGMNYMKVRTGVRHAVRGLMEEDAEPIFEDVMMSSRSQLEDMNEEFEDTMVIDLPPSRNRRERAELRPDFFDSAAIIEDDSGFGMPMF

[3] = target: T2, human cohesin subunit Smc1 (human, UniProt Q14683 1-1233)
T2 construct: also called Smcl
T2 sequence (looked up): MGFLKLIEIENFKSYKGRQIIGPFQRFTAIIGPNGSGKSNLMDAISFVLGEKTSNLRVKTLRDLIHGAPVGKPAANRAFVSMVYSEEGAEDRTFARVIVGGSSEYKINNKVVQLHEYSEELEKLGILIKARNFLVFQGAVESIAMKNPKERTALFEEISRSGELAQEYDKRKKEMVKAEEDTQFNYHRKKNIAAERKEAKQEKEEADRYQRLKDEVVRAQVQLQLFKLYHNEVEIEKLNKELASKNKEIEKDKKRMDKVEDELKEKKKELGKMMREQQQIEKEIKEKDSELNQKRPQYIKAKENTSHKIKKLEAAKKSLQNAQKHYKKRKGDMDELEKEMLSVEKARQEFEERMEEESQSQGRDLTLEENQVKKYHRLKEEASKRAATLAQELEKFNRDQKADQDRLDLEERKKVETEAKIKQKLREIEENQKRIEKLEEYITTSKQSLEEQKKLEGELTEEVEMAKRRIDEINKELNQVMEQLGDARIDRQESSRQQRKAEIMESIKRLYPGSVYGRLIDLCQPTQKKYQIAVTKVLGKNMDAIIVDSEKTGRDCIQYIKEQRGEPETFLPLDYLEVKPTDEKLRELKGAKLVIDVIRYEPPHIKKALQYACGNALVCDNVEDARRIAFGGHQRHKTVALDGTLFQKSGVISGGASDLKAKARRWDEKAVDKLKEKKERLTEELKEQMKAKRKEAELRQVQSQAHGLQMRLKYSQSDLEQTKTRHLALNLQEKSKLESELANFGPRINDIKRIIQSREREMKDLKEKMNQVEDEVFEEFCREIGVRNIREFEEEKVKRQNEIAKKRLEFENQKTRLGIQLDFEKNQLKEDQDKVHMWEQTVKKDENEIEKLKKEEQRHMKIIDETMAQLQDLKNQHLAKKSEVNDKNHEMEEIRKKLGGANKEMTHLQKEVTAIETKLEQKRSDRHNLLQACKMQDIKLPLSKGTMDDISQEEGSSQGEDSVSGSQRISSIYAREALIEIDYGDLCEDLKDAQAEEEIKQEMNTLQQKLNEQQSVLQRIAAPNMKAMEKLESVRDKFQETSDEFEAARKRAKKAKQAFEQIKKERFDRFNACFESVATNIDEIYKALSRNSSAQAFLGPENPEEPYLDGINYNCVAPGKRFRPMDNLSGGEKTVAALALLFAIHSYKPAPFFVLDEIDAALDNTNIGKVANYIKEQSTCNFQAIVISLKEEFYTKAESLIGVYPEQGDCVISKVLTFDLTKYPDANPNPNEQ

[4] = target: T3, human cohesin subunit SA2 (cell-cycle state not stated) (human, UniProt Q8N3U4 1-1231)
T3 construct: Endogenous protein from HeLa cells
T3 sequence: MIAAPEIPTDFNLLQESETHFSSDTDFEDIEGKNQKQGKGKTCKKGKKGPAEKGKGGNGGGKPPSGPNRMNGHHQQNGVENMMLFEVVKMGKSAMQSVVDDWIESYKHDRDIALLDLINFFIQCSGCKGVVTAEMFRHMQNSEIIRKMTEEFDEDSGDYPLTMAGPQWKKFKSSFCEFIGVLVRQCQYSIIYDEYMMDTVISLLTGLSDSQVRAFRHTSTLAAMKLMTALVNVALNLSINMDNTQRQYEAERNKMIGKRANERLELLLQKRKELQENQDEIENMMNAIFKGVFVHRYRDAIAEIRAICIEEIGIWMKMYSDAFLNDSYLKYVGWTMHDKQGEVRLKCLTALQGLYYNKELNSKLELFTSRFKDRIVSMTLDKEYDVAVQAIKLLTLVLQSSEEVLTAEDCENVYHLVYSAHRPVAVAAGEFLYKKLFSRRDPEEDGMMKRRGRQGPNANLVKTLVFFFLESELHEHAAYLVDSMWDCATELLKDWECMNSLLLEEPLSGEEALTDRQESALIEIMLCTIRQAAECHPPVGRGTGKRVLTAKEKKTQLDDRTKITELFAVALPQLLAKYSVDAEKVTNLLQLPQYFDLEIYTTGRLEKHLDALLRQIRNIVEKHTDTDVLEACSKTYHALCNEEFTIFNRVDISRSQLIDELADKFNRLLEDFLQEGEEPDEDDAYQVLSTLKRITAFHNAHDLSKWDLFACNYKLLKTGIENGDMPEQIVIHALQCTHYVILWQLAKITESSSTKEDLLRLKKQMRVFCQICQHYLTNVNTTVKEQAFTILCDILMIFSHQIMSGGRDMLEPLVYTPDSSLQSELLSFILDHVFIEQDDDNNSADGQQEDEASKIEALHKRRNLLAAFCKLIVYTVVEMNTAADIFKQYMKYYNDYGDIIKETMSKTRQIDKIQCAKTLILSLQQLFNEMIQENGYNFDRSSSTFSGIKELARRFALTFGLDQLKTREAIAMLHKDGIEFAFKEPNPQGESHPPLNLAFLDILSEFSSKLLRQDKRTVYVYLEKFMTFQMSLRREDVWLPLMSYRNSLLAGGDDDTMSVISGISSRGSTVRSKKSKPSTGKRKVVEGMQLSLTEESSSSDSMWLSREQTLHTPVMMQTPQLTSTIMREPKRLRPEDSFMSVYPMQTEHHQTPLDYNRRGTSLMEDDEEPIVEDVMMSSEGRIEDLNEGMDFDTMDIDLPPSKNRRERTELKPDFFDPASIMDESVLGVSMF

Sequence of human cohesin subunit Smc3 (Q9UQE7 whole entry): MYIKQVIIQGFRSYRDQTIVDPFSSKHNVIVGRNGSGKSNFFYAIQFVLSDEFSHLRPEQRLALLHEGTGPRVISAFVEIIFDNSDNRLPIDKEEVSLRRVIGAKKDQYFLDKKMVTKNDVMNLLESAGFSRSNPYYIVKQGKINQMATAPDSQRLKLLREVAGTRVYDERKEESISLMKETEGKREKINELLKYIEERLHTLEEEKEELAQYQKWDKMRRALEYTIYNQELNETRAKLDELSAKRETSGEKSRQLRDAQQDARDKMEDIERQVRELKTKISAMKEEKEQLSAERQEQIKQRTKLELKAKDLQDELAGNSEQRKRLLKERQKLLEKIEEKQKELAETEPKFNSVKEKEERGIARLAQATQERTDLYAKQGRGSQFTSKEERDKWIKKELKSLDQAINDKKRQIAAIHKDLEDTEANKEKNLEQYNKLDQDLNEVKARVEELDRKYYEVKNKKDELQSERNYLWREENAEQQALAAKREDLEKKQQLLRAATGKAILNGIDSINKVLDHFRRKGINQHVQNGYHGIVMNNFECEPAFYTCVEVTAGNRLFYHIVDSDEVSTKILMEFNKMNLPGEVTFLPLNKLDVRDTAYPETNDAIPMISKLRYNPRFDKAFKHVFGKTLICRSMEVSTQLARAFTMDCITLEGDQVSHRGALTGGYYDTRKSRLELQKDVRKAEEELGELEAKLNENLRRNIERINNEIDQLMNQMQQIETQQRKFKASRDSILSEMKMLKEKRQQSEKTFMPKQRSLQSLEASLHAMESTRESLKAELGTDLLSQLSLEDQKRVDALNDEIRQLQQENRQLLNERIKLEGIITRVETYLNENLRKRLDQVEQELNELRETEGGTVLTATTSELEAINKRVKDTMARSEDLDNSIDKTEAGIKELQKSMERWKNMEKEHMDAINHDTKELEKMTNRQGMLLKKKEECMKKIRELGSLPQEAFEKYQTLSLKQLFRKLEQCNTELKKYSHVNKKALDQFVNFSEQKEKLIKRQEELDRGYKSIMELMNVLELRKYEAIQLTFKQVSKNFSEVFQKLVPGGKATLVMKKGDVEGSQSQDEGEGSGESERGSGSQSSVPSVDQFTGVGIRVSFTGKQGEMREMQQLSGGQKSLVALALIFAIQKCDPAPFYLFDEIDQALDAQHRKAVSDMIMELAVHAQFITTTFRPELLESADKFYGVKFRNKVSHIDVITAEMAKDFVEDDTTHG

- binding result [1]: binds
- binding result [2]: binds
- binding result [3]: binds
- binding result [4]: binds
B1: Scc1-S454A-myc expressed in HeLa tet-on cells (cell-cycle state not stated) (other)
chain: MFYAHFVLSKRGPLAKIWLAAHWDKKLTKAHVFECNLESSVESIISPKVKMALRTSGHLLLGVVRIYHRKAKYLLADCNEAFIKIKMAFRPGVVDLPEENREAAYNAITLPEEFHDFDQPLPDLDDIDVAQQFSLNQSRVEEITMREEVGNISILQENDFGDFGMDDREIMREGSAFEDDDMLVSTTTSNLLLESEQSTSNLNEKINHLEYEDQYKDDNFGEGNDGGILDDKLISNNDGGIFDDPPALSEAGVMLPEQPAHDDMDEDDNVSMGGPDSPDSVDPVEPMPTMTDQTTLVPNEEEAFALEPIDITVKETKAKRKRKLIVDSVKELDSKTIRAQLSDYSDIVTTLDLAPPTKKLMMWKETGGVEKLFSLPAQPLWNNRLLKLFTRCLTPLVPEDLRKRRKGGEADNLDEFLKEFENPEVPREDQQQQHQQRDVIDEPIIEEPSRLQEAVMEASRTNIDESAMPPPPPQGVKRKAGQIDPEPVMPPQQVEQMEIPPVELPPEEPPNICQLIPELELLPEKEKEKEKEKEDDEEEEDEDASGGDQDQEERRWNKRTQQMLHGLQRALAKTGAESISLLELCRNTNRKQAAAKFYSFLVLKKQQAIELTQEEPYSDIIATPGPRFHII
notes: not shown: 9xmyc tag at the C-terminus
